According to article PMC509406, “Emerin Caps the Pointed End of Actin Filaments: Evidence for an Actin Cortical Network at the Nuclear Inner Membrane” (PLoS Biology, 2004):
Values joined by “and” are separate entries in the source; they are usually repeats but may differ in a detail not shown here. Identical values can stand only once.

Legend:
[1] = target: T1, rabbit actin (Cytoskeleton, catalog #AKL95) (rabbit, UniProt P68135 1-377); assay: cell-based or functional assay
[2] = target: T2, purified actin (F-actin or G-actin; species not told for these experiments) ( (purified chicken and rabbit …, UniProt P68135 1-377); assay: F-actin column (affinity determination); F-actin column used to determine the affinity of F-actin for emerin; n = 8; conditions: both partners purified
[3] = target: T2, purified actin (F-actin or G-actin; …); assay: co-sedimentation; actin polymerized in KMEI buffer, incubated 30 min with recombinant emerin (4 μM in text and methods, 2 μM in the legend), pelleted at 100,000g for 1 h; SDS-PAGE, Coomassie blue; conditions: both partners purified
[4] = target: T1, rabbit actin (Cytoskeleton, catalog …); assay: pyrene–actin polymerization rate against emerin concentration; 2 μM rabbit actin with 5% pyrene–actin; emerin 0.1 to 4.4 μM added just prior to polymerization; R/cR; equilibrium affinity from activity; conditions: both partners purified
[5] = target: T1, rabbit actin (Cytoskeleton, catalog …); assay: pointed-end elongation of gelsolin–actin seeds (pyrene–actin) against emerin concentration; gelsolin–actin dimers (10 nM), 2 μM actin, 0 to 2 μM wild-type emerin 1–222; apparent Kd from the reduction of the rate; n = 12; conditions: both partners purified
[6] = target: T1, rabbit actin (Cytoskeleton, catalog …); assay: depolymerization of actin filaments grown from gelsolin–actin seeds against emerin concentration; filaments from 2 μM actin and gelsolin–actin seeds diluted 10-fold to 0.2 μM actin with 0–2 μM emerin 1–222; apparent Kd; n = 6; conditions: both partners purified

Row | Binder | critical concentration for pointed-end growth (5 nM gelsolin–actin seeds, 625 nM emerin, 16 h at room temperature) [1] | rate of depolymerization of filaments grown from gelsolin–actin seeds, diluted to 0.2 μM actin, emerin 0–2 μM [1] | rate of depolymerization of preformed filaments capped at the barbed end with capping protein (CapZ), diluted into 0.2 μM actin (data not shown) [1] | rate of pyrene–actin polymerization (R/cR), emerin 0.1 to 4.4 μM, 2 μM actin [1] | Kd [2] | stoichiometry N [3] | Kd [4] | Kd [5] | Kd [6] | rate of pyrene–actin polymerization, 1 μM mutant, 2.0 μM G-actin, against wild-type emerin [1]
1 | wild-type emerin (residues 1–222), the full nucleoplasmic domain (domain or fragment, emerin, residues 1–222, the entire nucleoplasmic domain, lacking the transmembrane domain; also called emr; WT; source: expressed in bacteria and purified) MDNYADLSDTELTTLLRRYNIPHGPVVGSTRRLYEKKIFEYETQRRRLSPPSSSAASSYSFSDLNSTRGDADMYDLPKKEDALLYQSKGYNDDYYEESYFTTRTYGEPESAGPSRAVRQSVTSFPDADAFHHQVHDDDLLSSSEEECKDRERPMYGRDSAYQSITHYRPVSASRSSLDLSYYPTSSSTSFMSSSSSSSSWLTRRAIRPENRAPGAGLGQDRQ | 2.3 to 2.7 fold | ≤ 8 fold | 10 fold | 4 fold | 480 nM and 300 to 500 nM | ~300 actin monomers per emerin molecule | 420 nM | 430 nM and 300 to 500 nM | 380 nM and 350 to 450 nM | –
2 | emerin (residues 1–222) alanine substitution mutant m196 (domain or fragment) MDNYADLSDTELTTLLRRYNIPHGPVVGSTRRLYEKKIFEYETQRRRLSPPSSSAASSYSFSDLNSTRGDADMYDLPKKEDALLYQSKGYNDDYYEESYFTTRTYGEPESAGPSRAVRQSVTSFPDADAFHHQVHDDDLLSSSEEECKDRERPMYGRDSAYQSITHYRPVSASRSSLDLSYYPTSSSTSFMSSSSAASSWLTRRAIRPENRAPGAGLGQDRQ | – | – | – | – | – | – | – | – | – | ~50 % of wild-type emerin
